The source of these data is paper PMC4960319.

For assay [1], the target named is σR (residues 5-227) (Streptomyces coelicolor) (UniProt Q7AKG9). Briefly: ITC; with zinc (+), RsrA preincubated with 1 mM ZnCl2 and buffer exchanged; direct titration for weaker binding mutants (methods: 10 μM RsrA in the cell, 100 μM σR in the syringe); 35 °C, 50 mM Tris pH 7.5, 100 mM NaCl, 2 mM DTT; single binding site model. On the technique in general: ITC needs no label: the signal is the heat of the interaction.

The target in assay [2] is σ^R (sigma factor SigR) from Streptomyces coelicolor, residues 5-227, tagless (Streptomyces coelicolor) (UniProt Q7AKG9). In words: ITC; RsrA mutants (values in Supplementary Table 1); 35 °C, 50 mM Tris pH 7.5, 100 mM NaCl, 2 mM DTT; direct titration for weaker binding mutants (10 μM RsrA in the cell, 100 μM σ^R in the syringe); RsrA preincubated with ZnCl2 and buffer exchanged where zinc was included.

One may read the Kd as the constant that tells how readily two partners part at equilibrium. A higher Kd goes with weaker binding. Substance “RsrA* C41S (from UniProt Q7AKG8 4-105) (natural protein)” yielded a Kd in assay [1] of 557 nM.
In turn, “RsrA Val54Ala Leu57Ala (from UniProt Q7AKG8 1-105) (natural protein)” displayed a fold weakening of binding to σ^R against RsrA in assay [2] of more than 100 fold.
In assay [2], “RsrA Val75Ala Leu79Ala (from UniProt Q7AKG8 1-105) (natural protein)” came in with a fold weakening of binding to σ^R against RsrA of more than 100 fold.
